Measured values reported in patent US20030040044A1.
Values belong to the substance of their own block, whether it stands above or below them.

Experiments:
[1] = biological target: human αVβ3 integrin, purified (human) (UniProt P06756); assay: ELISA on αVβ3-coated plates, fifty percent maximal binding
[2] = biological target: αVβ5 integrin on human cells (human) (UniProt P06756); assay: binding of radiolabelled P1F6 to M21 cells, Bmax, n = 2
[3] = biological target: αVβ5 integrin on human cells (human) (UniProt P06756)
[4] = biological target: αVβ5 integrin on human cells (human) (UniProt P06756); remark: listed apart in the source
[5] = biological target: αVβ5 integrin on human cells (human) (UniProt P06756); assay: binding of radiolabelled P1F6 to HT-29 cells, Bmax, n = 1
[6] = biological target: αVβ5 integrin on human cells (human) (UniProt P06756); assay: binding of radiolabelled P1F6 to A375S2 cells, Bmax, n = 4
[7] = biological target: human αVβ3 integrin, purified (human) (UniProt P06756); assay: saturation binding on αvβ3 coated plate (ELISA), non-linear regression, n = 6
[8] = biological target: αVβ3 integrin on human cells (human) (UniProt P06756)
[9] = biological target: αVβ3 integrin on human cells (human) (UniProt P06756); remark: listed apart in the source
[10] = biological target: αVβ3 integrin on human cells (human) (UniProt P06756); assay: binding of radiolabelled LM609 to A375S2 cells, Bmax, n = 2
[11] = biological target: αvβ3 and αvβ5 integrins together on human cells (M21, A375S2, HUVEC) (human) (UniProt P06756)

Substance: c7E3 IgG (antibody)
EC50 [1]: 0.07 µg/mL

Substance: P1F6 (antibody)
Receptors per cell (receptors per cell) [2]: 44000 | Adhesion (%) of HUVEC to vitronectin (% of adhesion without antibody) [3]: 39.8 | Adhesion (%) of A375S.2 cells to vitronectin (% of adhesion without antibody) [4]: 28.5 | Receptors per cell (receptors per cell) [5]: 73000 | Receptors per cell (receptors per cell) [6]: 70000

Substance: ReoPro (Fab)
Kd [7]: 0.25 nM

More lines, now with the values ahead:

Adhesion (%) of HUVEC to fibrin (% of adhesion without antibody) [8]: 48.1 | Adhesion (%) of HUVEC to fibrinogen (% of adhesion without antibody) [8]: 14.3 | Adhesion (%) of HUVEC to gelatin (% of adhesion without antibody) [8]: 36.5 | Adhesion (%) of HUVEC to vitronectin (% of adhesion without antibody) [8]: 26.3 | Adhesion (%) of A375S.2 cells to fibrin (% of adhesion without antibody) [9]: 50 | Adhesion (%) of A375S.2 cells to fibrinogen (% of adhesion without antibody) [9]: 14 | Adhesion (%) of A375S.2 cells to gelatin (% of adhesion without antibody) [9]: 25.2 | Adhesion (%) of A375S.2 cells to vitronectin (% of adhesion without antibody) [9]: 42.1 | Receptors per cell (receptors per cell) [10]: 300000
Substance: LM609 (antibody)

Adhesion (%) of HUVEC to vitronectin (% of adhesion without antibody) [11]: 96.3
Substance: Human IgG (polyclonal serum or antibody)
